Laboratory results taken from US20240118272A1.

Key:
[1] = biological target: CD9(ECD)-ALP conjugate (human; bovine); experiment: HI-1000 capture immunoassay; secondary calibrator C5, 387.01 U/L; run 2
[2] = biological target: CD9(ECD)-ALP conjugate (human; bovine); experiment: HI-1000 capture immunoassay; primary calibrator C4, 50.05 ng/mL; run 3
[3] = biological target: CD9(FL)-ALP conjugate (human; bovine); experiment: HI-1000 capture immunoassay; calibrator C4, 15 ng/mL; mean of 3
[4] = biological target: CD9(ECD)-ALP conjugate (human; bovine); experiment: HI-1000 capture immunoassay; primary calibrator C2, 4.89 ng/mL; mean of 3
[5] = biological target: CD9(FL)-ALP conjugate (human; bovine); experiment: HI-1000 capture immunoassay; calibrator C4, 15 ng/mL; run 1
[6] = biological target: CD9(FL)-ALP conjugate (human; bovine); experiment: HI-1000 capture immunoassay; calibrator C1, 1.0 ng/mL; run 3
[7] = biological target: CD9(FL)-ALP conjugate (human; bovine); experiment: HI-1000 capture immunoassay; calibrator C3, 10.96 mU/L; run 2
[8] = biological target: CD9(ECD)-ALP conjugate (human; bovine); experiment: HI-1000 capture immunoassay; secondary calibrator C3, 14.32 U/L; mean of 3
[9] = biological target: CD9(ECD)-ALP conjugate (human; bovine); experiment: HI-1000 capture immunoassay; thawed aliquot 2 of secondary calibrator C5
[10] = biological target: CD9(FL)-ALP conjugate (human; bovine); experiment: HI-1000 capture immunoassay; calibrator C2, 5.48 mU/L; run 3
[11] = biological target: CD9(ECD)-ALP conjugate (human; bovine); experiment: HI-1000 capture immunoassay; primary calibrator C3, 15.65 ng/mL; run 1
[12] = biological target: CD9(ECD)-ALP conjugate (human; bovine); experiment: HI-1000 capture immunoassay; thawed aliquot 2 of secondary calibrator C1
[13] = biological target: CD9(FL)-ALP conjugate (human; bovine); experiment: HI-1000 capture immunoassay; calibrator C1, 1.83 mU/L; run 2
[14] = biological target: CD9(FL)-ALP conjugate (human; bovine); experiment: HI-1000 capture immunoassay; calibrator C5, 43.86 mU/L; run 1
[15] = biological target: CD9(ECD)-ALP conjugate (human; bovine); experiment: HI-1000 capture immunoassay; primary calibrator C5, 159.87 ng/mL; run 1
[16] = biological target: CD9(ECD)-ALP conjugate (human; bovine); experiment: HI-1000 capture immunoassay; secondary calibrator C4; mean of 3 aliquots
[17] = biological target: CD9(FL)-ALP conjugate (human; bovine); experiment: HI-1000 capture immunoassay; calibrator C3, 10.96 mU/L; mean of 3
[18] = biological target: CD9(ECD)-ALP conjugate (human; bovine); experiment: HI-1000 capture immunoassay; primary calibrator C1, 1.52 ng/mL; mean of 3
[19] = biological target: CD9(ECD)-ALP conjugate (human; bovine); experiment: HI-1000 capture immunoassay; secondary calibrator C3, 14.32 U/L; run 3
[20] = biological target: CD9(ECD)-ALP conjugate (human; bovine); experiment: HI-1000 capture immunoassay; secondary calibrator C4, 129.62 U/L; run 3
[21] = biological target: CD9(ECD)-ALP conjugate (human; bovine); experiment: HI-1000 capture immunoassay; secondary calibrator C2; mean of 3 aliquots
[22] = biological target: CD9(ECD)-ALP conjugate (human; bovine); experiment: HI-1000 capture immunoassay; thawed aliquot 3 of secondary calibrator C2
[23] = biological target: CD9(FL)-ALP conjugate (human; bovine); experiment: HI-1000 capture immunoassay; calibrator C1, 1.0 ng/mL; mean of 3
[24] = biological target: CD9(ECD)-ALP conjugate (human; bovine); experiment: HI-1000 capture immunoassay; secondary calibrator C2, 3.84 U/L; run 2
[25] = biological target: CD9(FL)-ALP conjugate (human; bovine); experiment: HI-1000 capture immunoassay; calibrator C4, 21.93 mU/L; run 3
[26] = biological target: CD9(FL)-ALP conjugate (human; bovine); experiment: HI-1000 capture immunoassay; calibrator C5, 30 ng/mL; mean of 3
[27] = biological target: CD9(ECD)-ALP conjugate (human; bovine); experiment: HI-1000 capture immunoassay; primary calibrator C5, 159.87 ng/mL; run 3
[28] = biological target: CD9(FL)-ALP conjugate (human; bovine); experiment: HI-1000 capture immunoassay; calibrator C3, 7.4 ng/mL; run 2
[29] = biological target: CD9(ECD)-ALP conjugate (human; bovine); experiment: HI-1000 capture immunoassay; primary calibrator C4, 50.05 ng/mL; run 2
[30] = biological target: CD9(ECD)-ALP conjugate (human; bovine); experiment: HI-1000 capture immunoassay; secondary calibrator C4, 129.62 U/L; mean of 3
[31] = biological target: CD9(FL)-ALP conjugate (human; bovine); experiment: HI-1000 capture immunoassay; calibrator C2, 3.7 ng/mL; run 3
[32] = biological target: CD9(FL)-ALP conjugate (human; bovine); experiment: HI-1000 capture immunoassay; calibrator C4, 15 ng/mL; run 3
[33] = biological target: CD9(ECD)-ALP conjugate (human; bovine); experiment: HI-1000 capture immunoassay; primary calibrator C2, 4.89 ng/mL; run 2
[34] = biological target: CD9(FL)-ALP conjugate (human; bovine); experiment: HI-1000 capture immunoassay; calibrator C1, 1.83 mU/L; run 3
[35] = biological target: CD9(ECD)-ALP conjugate (human; bovine); experiment: HI-1000 capture immunoassay; primary calibrator C2, 4.89 ng/mL; run 1
[36] = biological target: CD9(FL)-ALP conjugate (human; bovine); experiment: HI-1000 capture immunoassay; calibrator C3, 7.4 ng/mL; run 3
[37] = biological target: CD9(ECD)-ALP conjugate (human; bovine); experiment: HI-1000 capture immunoassay; secondary calibrator C5, 387.01 U/L; run 1
[38] = biological target: CD9(ECD)-ALP conjugate (human; bovine); experiment: HI-1000 capture immunoassay; secondary calibrator C3, 14.32 U/L; run 1
[39] = biological target: CD9(ECD)-ALP conjugate (human; bovine); experiment: HI-1000 capture immunoassay; primary calibrator C4, 50.05 ng/mL; mean of 3
[40] = biological target: CD9(ECD)-ALP conjugate (human; bovine); experiment: HI-1000 capture immunoassay; thawed aliquot 3 of secondary calibrator C5

Sequence of CD9(FL)-ALP conjugate (human; bovine) (chain, as listed by the source, chain 1 of 2): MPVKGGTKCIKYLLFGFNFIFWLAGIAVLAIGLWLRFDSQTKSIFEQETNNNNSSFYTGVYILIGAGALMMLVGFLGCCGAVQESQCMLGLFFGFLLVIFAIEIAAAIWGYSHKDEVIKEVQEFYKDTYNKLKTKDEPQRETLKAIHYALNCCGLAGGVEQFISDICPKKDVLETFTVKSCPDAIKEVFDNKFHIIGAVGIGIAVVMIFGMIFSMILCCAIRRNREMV
Sequence of CD9(FL)-ALP conjugate (human; bovine) (P19111 20-506, chain 2 of 2): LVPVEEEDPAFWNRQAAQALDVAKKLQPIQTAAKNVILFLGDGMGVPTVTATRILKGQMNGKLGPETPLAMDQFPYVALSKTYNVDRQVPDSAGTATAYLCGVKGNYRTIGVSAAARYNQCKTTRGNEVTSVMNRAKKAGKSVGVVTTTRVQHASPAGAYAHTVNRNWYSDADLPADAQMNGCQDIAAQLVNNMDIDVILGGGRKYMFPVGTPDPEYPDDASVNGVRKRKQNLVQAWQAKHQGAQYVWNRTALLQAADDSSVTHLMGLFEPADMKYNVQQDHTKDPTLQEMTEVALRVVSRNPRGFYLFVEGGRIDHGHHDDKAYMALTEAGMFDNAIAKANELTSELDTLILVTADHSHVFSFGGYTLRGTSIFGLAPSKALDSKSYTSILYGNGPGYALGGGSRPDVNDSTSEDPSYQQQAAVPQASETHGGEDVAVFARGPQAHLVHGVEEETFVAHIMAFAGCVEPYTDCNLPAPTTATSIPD
Sequence of CD9(ECD)-ALP conjugate (human; bovine) (chain, as listed by the source, chain 1 of 2): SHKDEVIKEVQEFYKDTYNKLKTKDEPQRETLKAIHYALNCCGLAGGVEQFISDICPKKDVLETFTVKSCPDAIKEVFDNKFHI
Sequence of CD9(ECD)-ALP conjugate (human; bovine) (P19111 20-506, chain 2 of 2): as the sequence (P19111 20-506, chain 2 of 2) above

A Count value [1] of 218000 count, a Count value [2] of 22600 count and a Count value (av) [3] of 13500 count were found for anti-CD9 antibody (Clone: H19a) in this work. It also gave a Count value (av) [4] of 2560 count, a Count value [5] of 13000 count and a Count value [6] of 1470 count. It also gave a Count value [7] of 7090 count, a Count value (av) [8] of 8090 count and a Count value [9] of 36800 count. It also gave a Count value [10] of 3780 count, a Count value [11] of 7340 count and a Count value [12] of 810 count. The Count value [13] was 1580 count, the Count value [14] was 25800 count and the Count value [15] was 70400 count. For the same substance, the Count value (av) [16] was 11600 count, the Count value (av) [17] was 6750 count and the Count value (av) [18] was 1100 count. The Count value [19] was 8060 count, the Count value [20] was 69500 count and the Count value (av) [21] was 1560 count. For the same substance, the Count value [22] was 1520 count, the Count value (av) [23] was 1480 count and the Count value [24] was 2300 count. For the same substance, the Count value [25] was 13300 count, the Count value (av) [26] was 25900 count and the Count value [27] was 71600 count. It also gave a Count value [28] of 7020 count, a Count value [29] of 21800 count and a Count value (av) [30] of 70000 count. The Count value [31] was 3800 count, the Count value [32] was 13900 count and the Count value [33] was 2520 count. For the same substance, the Count value [34] was 1460 count, the Count value [35] was 2610 count and the Count value [36] was 7010 count. The Count value [37] was 220000 count, the Count value [38] was 7980 count and the Count value (av) [39] was 22200 count. For the same substance, the Count value [40] was 35700 count.
